The chains are these.
B1: FAM189A2 (parent)
chain: GSEAAVIPLDLGCTQVTQDGDIPN
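Note: lentivirally expressed fusions sorted by FACS into six bins by GFP to DsRed ratio, PSI derived from sequencing read proportions per bin multiplied by bin number.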

In this data set the parent is B1. Description: protein stability index of a GFP-peptide fusion (GPS, HEK-293T) (PSI 1-6); higher = more stable. Conditions: c terminus: a fixed tail appended.
Consider GSEAAVIPLDLGCTQVTQCGDIPN [D19C], for which the protein stability index turned out to be 4.4. The same measure for GSEAAVIPLDLGCTQVTQMGDIPN [D19M]: 4.61. The same measure for GSEAAVIPLDLGCTQVTQRGDIPN [D19R]: 4.57; for GSEAAVIPLDLGCTQVTQYGDIPN [D19Y]: 4.47.

For the variant GSEAAVIPLDLGCTQVTQNGDIPN [D19N], the protein stability index was 4.8. Consider GSEAAVIPLDLGCTQVTQHGDIPN [D19H], for which the protein stability index amounted to 4.91. The result for GSEAAVIPLDLGCTQVTQFGDIPN [D19F] reads 4.46.

As for GSEAAVIPLDLGCTQVTQKGDIPN [D19K], the protein stability index is 5.19. GSEAAVIPLDLGCTQVTQEGDIPN [D19E]: the protein stability index turned out to be 5.34.

GSEAAVIPLDLGCTQVTQLGDIPN [D19L]: the protein stability index came to 4.78. The same measure for GSEAAVIPLDLGCTQVTQSGDIPN [D19S]: 4.62; for GSEAAVIPLDLGCTQVTQQGDIPN [D19Q]: 5.12. As to GSEAAVIPLDLGCTQVTQIGDIPN [D19I], the protein stability index turned out to be 4.3. The result for GSEAAVIPLDLGCTQVTQGGDIPN [D19G] reads 5.24; that for GSEAAVIPLDLGCTQVTQPGDIPN [D19P], 5.06. GSEAAVIPLDLGCTQVTQWGDIPN [D19W]: the protein stability index amounted to 4.37. The result for GSEAAVIPLDLGCTQVTQTGDIPN [D19T] reads 5.25. The same measure for GSEAAVIPLDLGCTQVTQVGDIPN [D19V]: 4.77; for GSEAAVIPLDLGCTQVTQAGDIPN [D19A]: 5.36; for GSEAAVIPLDLGCTQVTQDGFIPN [D21F]: 3.95. The result for GSEAAVIPLDLGCTQVTQDGWIPN [D21W] reads 3.76; that for GSEAAVIPLDLGCTQVTQDGAIPN [D21A], 5.07. As to GSEAAVIPLDLGCTQVTQDGGIPN [D21G], the protein stability index was 5.27. GSEAAVIPLDLGCTQVTQDGMIPN [D21M]: the protein stability index is 4.05. The result for GSEAAVIPLDLGCTQVTQDGSIPN [D21S] reads 4.97; that for GSEAAVIPLDLGCTQVTQDGNIPN [D21N], 4.77. Regarding GSEAAVIPLDLGCTQVTQDGKIPN [D21K], the protein stability index was 5.48. Turning to GSEAAVIPLDLGCTQVTQDGCIPN [D21C], the protein stability index came out at 4.71.

Consider GSEAAVIPLDLGCTQVTQDGYIPN [D21Y], for which the protein stability index was determined as 4.46.

With GSEAAVIPLDLGCTQVTQDGHIPN [D21H], the protein stability index was 4.38. The same measure for GSEAAVIPLDLGCTQVTQDGEIPN [D21E]: 5.03; for GSEAAVIPLDLGCTQVTQDGIIPN [D21I]: 4.45; for GSEAAVIPLDLGCTQVTQDGLIPN [D21L]: 4.52.

As to GSEAAVIPLDLGCTQVTQDGTIPN [D21T], the protein stability index stood at 4.97.

For the variant GSEAAVIPLDLGCTQVTQDGPIPN [D21P], the protein stability index was found to be 4.77.

With GSEAAVIPLDLGCTQVTQDGRIPN [D21R], the protein stability index came to 4.69. Consider GSEAAVIPLDLGCTQVTQDGVIPN [D21V], for which the protein stability index amounted to 4.94.

For the variant GSEAAVIPLDLGCTQVTQDGQIPN [D21Q], the protein stability index stood at 4.92. The result for GSEAAVIPLDLGCTQVTQDEDIPN [G20E] reads 5.62; that for GSEAAVIPLDLGCTQVTQDLDIPN [G20L], 5.04. Consider GSEAAVIPLDLGCTQVTQDYDIPN [G20Y], for which the protein stability index worked out at 5.09. As for GSEAAVIPLDLGCTQVTQDSDIPN [G20S], the protein stability index stood at 5.32.

In the case of GSEAAVIPLDLGCTQVTQDNDIPN [G20N], the protein stability index came to 5.31. Take GSEAAVIPLDLGCTQVTQDHDIPN [G20H]: the protein stability index worked out at 5.53.

Take GSEAAVIPLDLGCTQVTQDIDIPN [G20I]: the protein stability index stood at 5.29. For the variant GSEAAVIPLDLGCTQVTQDRDIPN [G20R], the protein stability index was found to be 4.89. The same measure for GSEAAVIPLDLGCTQVTQDTDIPN [G20T]: 5.41. Take GSEAAVIPLDLGCTQVTQDPDIPN [G20P]: the protein stability index stood at 4.97.

Regarding GSEAAVIPLDLGCTQVTQDVDIPN [G20V], the protein stability index came out at 4.97. In the case of GSEAAVIPLDLGCTQVTQDCDIPN [G20C], the protein stability index worked out at 5.3. The same measure for GSEAAVIPLDLGCTQVTQDADIPN [G20A]: 5.24. The same measure for GSEAAVIPLDLGCTQVTQDQDIPN [G20Q]: 4.75. The same measure for GSEAAVIPLDLGCTQVTQDKDIPN [G20K]: 5.28. As for GSEAAVIPLDLGCTQVTQDMDIPN [G20M], the protein stability index was 4.83.

Take GSEAAVIPLDLGCTQVTQDDDIPN [G20D]: the protein stability index stood at 5.56.

For GSEAAVIPLDLGCTQVTQDWDIPN [G20W], the protein stability index is 4.73. The same measure for GSEAAVIPLDLGCTQVTQDFDIPN [G20F]: 4.18. GSEAAVIPLDLGCTQVTQDGDISN [P23S]: the protein stability index is 5.3.

As for GSEAAVIPLDLGCTQVTQDGDIFN [P23F], the protein stability index turned out to be 4.35.

In the case of GSEAAVIPLDLGCTQVTQDGDILN [P23L], the protein stability index stood at 5.25.

On to GSEAAVIPLDLGCTQVTQDGDIGN [P23G], for which the protein stability index is 5.44. As for GSEAAVIPLDLGCTQVTQDGDIAN [P23A], the protein stability index turned out to be 5.3.

For GSEAAVIPLDLGCTQVTQDGDIHN [P23H], the protein stability index amounted to 4.85.

As for GSEAAVIPLDLGCTQVTQDGDINN [P23N], the protein stability index stood at 5.87. The same measure for GSEAAVIPLDLGCTQVTQDGDIKN [P23K]: 5.17.

Take GSEAAVIPLDLGCTQVTQDGDIMN [P23M]: the protein stability index came to 5.22.

For the variant GSEAAVIPLDLGCTQVTQDGDITN [P23T], the protein stability index was 5.5. As to GSEAAVIPLDLGCTQVTQDGDIYN [P23Y], the protein stability index amounted to 4.52. Take GSEAAVIPLDLGCTQVTQDGDIIN [P23I]: the protein stability index came out at 5.16. The same measure for GSEAAVIPLDLGCTQVTQDGDIDN [P23D]: 5.81; for GSEAAVIPLDLGCTQVTQDGDIQN [P23Q]: 5.3; for GSEAAVIPLDLGCTQVTQDGDICN [P23C]: 4.93. For the variant GSEAAVIPLDLGCTQVTQDGDIWN [P23W], the protein stability index is 4.07. The same measure for GSEAAVIPLDLGCTQVTQDGDIVN [P23V]: 5.29; for GSEAAVIPLDLGCTQVTQDGDIRN [P23R]: 4.89. On to GSEAAVIPLDLGCTQVTQDGDIEN [P23E], for which the protein stability index was determined as 5.55.

Turning to GSEAAVIPLDLGCTQVTQDGDVPN [I22V], the protein stability index is 5.54. The same measure for GSEAAVIPLDLGCTQVTQDGDEPN [I22E]: 5.53; for GSEAAVIPLDLGCTQVTQDGDRPN [I22R]: 5.22; for GSEAAVIPLDLGCTQVTQDGDAPN [I22A]: 5.72. Regarding GSEAAVIPLDLGCTQVTQDGDGPN [I22G], the protein stability index was determined as 5.26.

GSEAAVIPLDLGCTQVTQDGDNPN [I22N]: the protein stability index was 5.25. The result for GSEAAVIPLDLGCTQVTQDGDTPN [I22T] reads 5.58; that for GSEAAVIPLDLGCTQVTQDGDHPN [I22H], 5.37. GSEAAVIPLDLGCTQVTQDGDDPN [I22D]: the protein stability index is 5.64.

For the variant GSEAAVIPLDLGCTQVTQDGDYPN [I22Y], the protein stability index is 5.26. Take GSEAAVIPLDLGCTQVTQDGDWPN [I22W]: the protein stability index came to 5.34. The same measure for GSEAAVIPLDLGCTQVTQDGDPPN [I22P]: 5.37; for GSEAAVIPLDLGCTQVTQDGDLPN [I22L]: 5.39. The same measure for GSEAAVIPLDLGCTQVTQDGDMPN [I22M]: 5.08; for GSEAAVIPLDLGCTQVTQDGDQPN [I22Q]: 5.31; for GSEAAVIPLDLGCTQVTQDGDSPN [I22S]: 5.64.

Consider GSEAAVIPLDLGCTQVTQDGDCPN [I22C], for which the protein stability index stood at 5.67. Take GSEAAVIPLDLGCTQVTQDGDKPN [I22K]: the protein stability index was 5.65.

(Values after the supplement of paper PMC10567573.)
